Data reported in publication PMC5063977 (The Journal of Biological Chemistry, 2016).

What was measured:
[1] = molecular target: RAMP1-CLR complex expressed in HEK-293S cells (human) (UniProt Q16602)
[2] = molecular target: RAMP2-CLR complex expressed in HEK-293S cells (human) (UniProt Q16602)
[3] = molecular target: RAMP3-CLR complex expressed in HEK-293S cells (human) (UniProt Q16602)
[4] = molecular target: RAMP2-CLR complex expressed in HEK-293 cells (human) (UniProt Q16602)
[5] = molecular target: RAMP1-CLR complex expressed in HEK-293S cells (human) (UniProt Q16602); remark: listed apart in the source
[6] = molecular target: RAMP2-CLR complex expressed in HEK-293S cells (human) (UniProt Q16602); remark: listed apart in the source
[7] = molecular target: RAMP3-CLR complex expressed in HEK-293 cells (human) (UniProt Q16602)
[8] = molecular target: RAMP3-CLR complex expressed in HEK-293S cells (human) (UniProt Q16602); remark: listed apart in the source
[9] = molecular target: RAMP1-CLR complex expressed in HEK-293 cells (human) (UniProt Q16602)
[10] = molecular target: RAMP1-CLR heterodimer expressed in S. cerevisiae (human) (UniProt Q16602)
[11] = molecular target: RAMP2-CLR heterodimer expressed in S. cerevisiae (human) (UniProt Q16602)
[12] = molecular target: RAMP3-CLR heterodimer expressed in S. cerevisiae (human) (UniProt Q16602)
[13] = molecular target: RAMP2-CLR complex expressed in HEK-293 cells (human) (UniProt Q16602); remark: listed apart in the source
[14] = molecular target: RAMP3-CLR complex expressed in HEK-293 cells (human) (UniProt Q16602); remark: listed apart in the source
[15] = molecular target: RAMP1-CLR complex expressed in HEK-293 cells (human) (UniProt Q16602); remark: listed apart in the source
[16] = molecular target: RAMP2-CLR complex expressed in HEK-293 cells (human) (UniProt Q16602); remark: listed apart in the source
[17] = molecular target: RAMP3-CLR complex expressed in HEK-293 cells (human) (UniProt Q16602); remark: listed apart in the source
[18] = molecular target: RAMP1-CLR complex expressed in HEK-293 cells (human) (UniProt Q16602); remark: listed apart in the source

Sequence of RAMP2-CLR complex expressed in HEK-293 cells (human) (Q16602 23-461, chain 1 of 2): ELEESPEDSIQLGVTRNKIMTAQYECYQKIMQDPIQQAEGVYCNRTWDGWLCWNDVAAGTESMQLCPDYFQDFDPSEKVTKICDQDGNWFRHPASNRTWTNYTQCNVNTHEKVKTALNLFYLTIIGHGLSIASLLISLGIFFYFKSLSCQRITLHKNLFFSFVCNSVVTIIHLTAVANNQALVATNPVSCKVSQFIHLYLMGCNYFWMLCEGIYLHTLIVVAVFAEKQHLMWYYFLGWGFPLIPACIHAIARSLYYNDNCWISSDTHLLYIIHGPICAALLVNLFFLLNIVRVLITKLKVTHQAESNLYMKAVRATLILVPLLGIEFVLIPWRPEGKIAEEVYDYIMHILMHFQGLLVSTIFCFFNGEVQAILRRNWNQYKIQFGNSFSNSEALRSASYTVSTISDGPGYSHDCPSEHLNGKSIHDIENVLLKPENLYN
Sequence of RAMP2-CLR complex expressed in HEK-293 cells (human) (O60895 43-175, chain 2 of 2, further chain): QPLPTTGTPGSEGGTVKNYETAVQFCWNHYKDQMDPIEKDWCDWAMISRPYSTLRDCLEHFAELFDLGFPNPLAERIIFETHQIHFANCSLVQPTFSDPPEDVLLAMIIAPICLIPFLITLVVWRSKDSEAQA
Sequence of RAMP3-CLR heterodimer expressed in S. cerevisiae (human) (Q16602 23-461, chain 1 of 2): as the sequence (Q16602 23-461, chain 1 of 2) above
Sequence of RAMP3-CLR heterodimer expressed in S. cerevisiae (human) (O60896 24-148, chain 2 of 2, further chain): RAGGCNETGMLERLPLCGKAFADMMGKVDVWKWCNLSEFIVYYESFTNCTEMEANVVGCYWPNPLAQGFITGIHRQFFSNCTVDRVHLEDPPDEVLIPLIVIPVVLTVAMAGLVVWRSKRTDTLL
Sequence of RAMP2-CLR complex expressed in HEK-293S cells (human) (Q16602 23-461, chain 1 of 2): as the sequence (Q16602 23-461, chain 1 of 2) above
Sequence of RAMP2-CLR complex expressed in HEK-293S cells (human) (O60895 43-175, chain 2 of 2, further chain): as the sequence (O60895 43-175, chain 2 of 2, further chain) above
Sequence of RAMP1-CLR complex expressed in HEK-293 cells (human) (Q16602 23-461, chain 1 of 2): as the sequence (Q16602 23-461, chain 1 of 2) above
Sequence of RAMP1-CLR complex expressed in HEK-293 cells (human) (O60894 27-148, chain 2 of 2, further chain): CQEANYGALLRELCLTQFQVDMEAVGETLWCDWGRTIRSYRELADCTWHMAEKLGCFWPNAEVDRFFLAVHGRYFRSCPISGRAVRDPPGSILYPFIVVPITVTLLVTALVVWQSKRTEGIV
Sequence of RAMP1-CLR complex expressed in HEK-293S cells (human) (Q16602 23-461, chain 1 of 2): as the sequence (Q16602 23-461, chain 1 of 2) above
Sequence of RAMP1-CLR complex expressed in HEK-293S cells (human) (O60894 27-148, chain 2 of 2, further chain): as the sequence (O60894 27-148, chain 2 of 2, further chain) above
Sequence of RAMP2-CLR heterodimer expressed in S. cerevisiae (human) (Q16602 23-461, chain 1 of 2): as the sequence (Q16602 23-461, chain 1 of 2) above
Sequence of RAMP2-CLR heterodimer expressed in S. cerevisiae (human) (O60895 43-175, chain 2 of 2, further chain): as the sequence (O60895 43-175, chain 2 of 2, further chain) above
Sequence of RAMP3-CLR complex expressed in HEK-293 cells (human) (Q16602 23-461, chain 1 of 2): as the sequence (Q16602 23-461, chain 1 of 2) above
Sequence of RAMP3-CLR complex expressed in HEK-293 cells (human) (O60896 24-148, chain 2 of 2, further chain): as the sequence (O60896 24-148, chain 2 of 2, further chain) above
Sequence of RAMP3-CLR complex expressed in HEK-293S cells (human) (Q16602 23-461, chain 1 of 2): as the sequence (Q16602 23-461, chain 1 of 2) above
Sequence of RAMP3-CLR complex expressed in HEK-293S cells (human) (O60896 24-148, chain 2 of 2, further chain): as the sequence (O60896 24-148, chain 2 of 2, further chain) above
Sequence of RAMP1-CLR heterodimer expressed in S. cerevisiae (human) (Q16602 23-461, chain 1 of 2): as the sequence (Q16602 23-461, chain 1 of 2) above
Sequence of RAMP1-CLR heterodimer expressed in S. cerevisiae (human) (O60894 27-148, chain 2 of 2, further chain): as the sequence (O60894 27-148, chain 2 of 2, further chain) above

## hAM2 (1–47) (peptide)
[1]
  pEC50, cAMP accumulation in HEK-293S cells, with PTX pretreatment: 8.78 -log10
  pEC50, cAMP accumulation in HEK-293S cells, without PTX: 8.74 -log10
[2]
  pEC50, cAMP accumulation in HEK-293S cells, without PTX: 8.57 -log10
[3]
  pEC50, cAMP accumulation in HEK-293S cells, with PTX pretreatment: 7.79 -log10
  pEC50, cAMP accumulation in HEK-293S cells, without PTX: 8.01 -log10
[4]
  pEC50, (Ca^2+)i mobilization in HEK-293 cells: 7.41 -log10
  pKa (operational model of agonism), (Ca^2+)i mobilization in HEK-293 cells: 7.15 -log10
[5]
  pEC50, (Ca^2+)i mobilization in HEK-293S cells: 6.94 -log10
  pKa (operational model of agonism), (Ca^2+)i mobilization in HEK-293S cells: 6.76 -log10
[6]
  pEC50, (Ca^2+)i mobilization in HEK-293S cells: 7.42 -log10
  pKa (operational model of agonism), (Ca^2+)i mobilization in HEK-293S cells: 7.33 -log10
[7]
  pEC50, (Ca^2+)i mobilization in HEK-293 cells: 8.05 -log10
  pKa (operational model of agonism), (Ca^2+)i mobilization in HEK-293 cells: 7.95 -log10
[8]
  pEC50, (Ca^2+)i mobilization in HEK-293S cells: 7.44 -log10
  pKa (operational model of agonism), (Ca^2+)i mobilization in HEK-293S cells: 7.35 -log10
[9]
  pEC50, (Ca^2+)i mobilization in HEK-293 cells: 6.76 -log10
  pKa (operational model of agonism), (Ca^2+)i mobilization in HEK-293 cells: 6.64 -log10
[10]
  pEC50, yeast growth reporter, GPA1/Gαi chimera strain: 8.57 -log10
  pEC50, yeast growth reporter, GPA1/Gαq chimera strain: 7.99 -log10
  pEC50, yeast growth reporter, GPA1/Gαs chimera strain: 7.22 -log10
  pKa (operational model of agonism), yeast growth reporter, GPA1/Gαi chimera strain: 8.24 -log10
  pKa (operational model of agonism), yeast growth reporter, GPA1/Gαq chimera strain: 7.91 -log10
  pKa (operational model of agonism), yeast growth reporter, GPA1/Gαs chimera strain: 7.31 -log10
[11]
  pEC50, yeast growth reporter, GPA1/Gαi chimera strain: 8.42 -log10
  pEC50, yeast growth reporter, GPA1/Gαq chimera strain: 9.22 -log10
  pEC50, yeast growth reporter, GPA1/Gαs chimera strain: 8.05 -log10
  pKa (operational model of agonism), yeast growth reporter, GPA1/Gαi chimera strain: 8.3 -log10
  pKa (operational model of agonism), yeast growth reporter, GPA1/Gαq chimera strain: 9.16 -log10
  pKa (operational model of agonism), yeast growth reporter, GPA1/Gαs chimera strain: 8.1 -log10
[12]
  pEC50, yeast growth reporter, GPA1/Gαi chimera strain: 8.49 -log10
  pEC50, yeast growth reporter, GPA1/Gαq chimera strain: 6.76 -log10
  pEC50, yeast growth reporter, GPA1/Gαs chimera strain: 8.85 -log10
  pKa (operational model of agonism), yeast growth reporter, GPA1/Gαi chimera strain: 8.3 -log10
  pKa (operational model of agonism), yeast growth reporter, GPA1/Gαq chimera strain: 6.6 -log10
  pKa (operational model of agonism), yeast growth reporter, GPA1/Gαs chimera strain: 8.61 -log10
[13]
  pEC50, cAMP accumulation in HEK-293 cells: 7.48 -log10
  pKa (operational model of agonism), cAMP accumulation in HEK-293 cells: 7.16 -log10
[14]
  pEC50, cAMP accumulation in HEK-293 cells: 9.14 -log10
  pKa (operational model of agonism), cAMP accumulation in HEK-293 cells: 9 -log10
[15]
  pEC50, cAMP accumulation in HEK-293 cells: 7.93 -log10
  pKa (operational model of agonism), cAMP accumulation in HEK-293 cells: 7.76 -log10
[16]
  pKa (operational model of agonism), cAMP accumulation in HEK-293 cells, with PTX pretreatment: 8.84 -log10
[17]
  pEC50, cAMP accumulation in HEK-293 cells, with PTX pretreatment: 8.74 -log10
  pEC50, cAMP accumulation in HEK-293 cells, without PTX: 9.1 -log10
  pKa (operational model of agonism), cAMP accumulation in HEK-293 cells, with PTX pretreatment: 8.43 -log10
  pKa (operational model of agonism), cAMP accumulation in HEK-293 cells, without PTX: 9.08 -log10
[18]
  pEC50, cAMP accumulation in HEK-293 cells, with PTX pretreatment: 9.15 -log10
  pEC50, cAMP accumulation in HEK-293 cells, without PTX: 7.93 -log10
  pKa (operational model of agonism), cAMP accumulation in HEK-293 cells, with PTX pretreatment: 8.56 -log10
  pKa (operational model of agonism), cAMP accumulation in HEK-293 cells, without PTX: 7.7 -log10

## hAM (peptide)
[1]
  pEC50, cAMP accumulation in HEK-293S cells, with PTX pretreatment: 8.03 -log10
  pEC50, cAMP accumulation in HEK-293S cells, without PTX: 8.13 -log10
[2]
  pEC50, cAMP accumulation in HEK-293S cells, with PTX pretreatment: 9.38 -log10
  pEC50, cAMP accumulation in HEK-293S cells, without PTX: 9.39 -log10
[3]
  pEC50, cAMP accumulation in HEK-293S cells, with PTX pretreatment: 9.49 -log10
  pEC50, cAMP accumulation in HEK-293S cells, without PTX: 9.63 -log10
[4]
  pEC50, (Ca^2+)i mobilization in HEK-293 cells: 7.86 -log10
  pKa (operational model of agonism), (Ca^2+)i mobilization in HEK-293 cells: 7.45 -log10
[5]
  pEC50, (Ca^2+)i mobilization in HEK-293S cells: 7.63 -log10
  pKa (operational model of agonism), (Ca^2+)i mobilization in HEK-293S cells: 7.42 -log10
[6]
  pEC50, (Ca^2+)i mobilization in HEK-293S cells: 7.68 -log10
  pKa (operational model of agonism), (Ca^2+)i mobilization in HEK-293S cells: 7.39 -log10
[7]
  pEC50, (Ca^2+)i mobilization in HEK-293 cells: 8.12 -log10
  pKa (operational model of agonism), (Ca^2+)i mobilization in HEK-293 cells: 7.76 -log10
[8]
  pEC50, (Ca^2+)i mobilization in HEK-293S cells: 8.02 -log10
  pKa (operational model of agonism), (Ca^2+)i mobilization in HEK-293S cells: 8.56 -log10
[9]
  pEC50, (Ca^2+)i mobilization in HEK-293 cells: 7.9 -log10
  pKa (operational model of agonism), (Ca^2+)i mobilization in HEK-293 cells: 7.69 -log10
[10]
  pEC50, yeast growth reporter, GPA1/Gαi chimera strain: 8.38 -log10
  pEC50, yeast growth reporter, GPA1/Gαq chimera strain: 7.26 -log10
  pEC50, yeast growth reporter, GPA1/Gαs chimera strain: 8.8 -log10
  pKa (operational model of agonism), yeast growth reporter, GPA1/Gαi chimera strain: 8.2 -log10
  pKa (operational model of agonism), yeast growth reporter, GPA1/Gαq chimera strain: 7.19 -log10
  pKa (operational model of agonism), yeast growth reporter, GPA1/Gαs chimera strain: 8.81 -log10
[11]
  pEC50, yeast growth reporter, GPA1/Gαi chimera strain: 7.91 -log10
  pEC50, yeast growth reporter, GPA1/Gαq chimera strain: 7.93 -log10
  pEC50, yeast growth reporter, GPA1/Gαs chimera strain: 8.82 -log10
  pKa (operational model of agonism), yeast growth reporter, GPA1/Gαi chimera strain: 7.75 -log10
  pKa (operational model of agonism), yeast growth reporter, GPA1/Gαq chimera strain: 7.78 -log10
  pKa (operational model of agonism), yeast growth reporter, GPA1/Gαs chimera strain: 8.77 -log10
[12]
  pEC50, yeast growth reporter, GPA1/Gαi chimera strain: 7.89 -log10
  pEC50, yeast growth reporter, GPA1/Gαq chimera strain: 7.83 -log10
  pEC50, yeast growth reporter, GPA1/Gαs chimera strain: 8.15 -log10
  pKa (operational model of agonism), yeast growth reporter, GPA1/Gαi chimera strain: 8 -log10
  pKa (operational model of agonism), yeast growth reporter, GPA1/Gαq chimera strain: 7.71 -log10
  pKa (operational model of agonism), yeast growth reporter, GPA1/Gαs chimera strain: 8.1 -log10
[13]
  pEC50, cAMP accumulation in HEK-293 cells: 10.3 -log10
  pKa (operational model of agonism), cAMP accumulation in HEK-293 cells: 9.95 -log10
[14]
  pEC50, cAMP accumulation in HEK-293 cells: 8.86 -log10
  pKa (operational model of agonism), cAMP accumulation in HEK-293 cells: 8.5 -log10
[15]
  pEC50, cAMP accumulation in HEK-293 cells: 7.92 -log10
  pKa (operational model of agonism), cAMP accumulation in HEK-293 cells: 7.64 -log10
[16]
  pEC50, cAMP accumulation in HEK-293 cells, with PTX pretreatment: 10.2 -log10
  pEC50, cAMP accumulation in HEK-293 cells, without PTX: 10.3 -log10
  pKa (operational model of agonism), cAMP accumulation in HEK-293 cells, with PTX pretreatment: 9.83 -log10
  pKa (operational model of agonism), cAMP accumulation in HEK-293 cells, without PTX: 10 -log10
[17]
  pEC50, cAMP accumulation in HEK-293 cells, with PTX pretreatment: 9.1 -log10
  pEC50, cAMP accumulation in HEK-293 cells, without PTX: 8.98 -log10
  pKa (operational model of agonism), cAMP accumulation in HEK-293 cells, with PTX pretreatment: 8.94 -log10
  pKa (operational model of agonism), cAMP accumulation in HEK-293 cells, without PTX: 8.83 -log10
[18]
  pEC50, cAMP accumulation in HEK-293 cells, with PTX pretreatment: 8.14 -log10
  pEC50, cAMP accumulation in HEK-293 cells, without PTX: 7.93 -log10
  pKa (operational model of agonism), cAMP accumulation in HEK-293 cells, with PTX pretreatment: 7.66 -log10
  pKa (operational model of agonism), cAMP accumulation in HEK-293 cells, without PTX: 7.67 -log10
